B1: TPR t1 (parent)
chain: GACCAAUCUGCCCUCAGAGCUCGAGAACAUCUUCGGAUGCAGAGGAGGCAGGCUUCGGUGGCGCGAUAGCGCCAACGUCCUCAACCUCCAAUGCAUCCCACCACAUGAUGAUGCCUGAAGAGCCUUGGUUUUUUG

Variants of: B1
Assay: polymerase ribozyme fitness, log enrichment relative to wild type (log ratio); higher = more active; in vitro selection for triplet polymerase activity
In short: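 Libraries of mutants in each subunit of a heterodimeric triplet polymerase ribozyme were generated by PCR and transcribed. In triplicate, each went through one in vitro selection round: annealing with biotinylated primer, partner subunit and triplets; frozen incubation at −7 °C; gel excision of extended constructs; streptavidin-bead capture; RT-PCR. Fitness, taken from Illumina sequencing of input and output libraries, is the logarithm of a genotype's enrichment over wild-type enrichment, averaged across replicates with inverse-variance weights. The logarithm is base 2, and genotypes needed ≥10 input reads and ≥1 read per output to be kept.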

Variant	polymerase ribozyme fitness (log ratio)
GACCAAUCUGCCCUCAGAGCUCGAGAACAUCUUCGGAUGCAAAUGAGGCAGGAUACGGUGGCGCGAUAGCGCCAACGUCCUCAACCUCCAAUGCAUCCCACCACAUGAUGAUGCCUGAAGAGCCUUCGUUUUUUG [G42A G44U C53A U55A G127C]	-3.14
GACCAAUCUGCCCUCAGAGCUCGAGAACAUCUUCGGAUGCAAAGGAGGCAGGCUUCGGUGGCGCGAUAGCGGCAACGUCCUCAACCUCGAAUGCAUCCCACCACAUGAUGAUGCCUGAAGAGCCUUGGUUUUUUG [G42A C72G C89G]	-3.84
GACCAAUCUGCCCUCAGAGCUCGAGAACAUCUUCGGAUGCAAAGUAGGCAGGCUUCGGUGGCGCGAUAGCGCCAACGUCCUUAACCUCUUAUGCAUCCCACCACAUGAUGAUGCCUGGAGAGCCUUGGUUUUUUG [G42A G45U C82U C89U A90U A118G]	-1.67
GACCAAUCUGCCCUCAGAGCUCGAGAACAUCUUCGGAUGCAAAGGAGGCAGGCUUCGGUGGCGCGAUAGCGCCAACGUCCUCUACCUCCAAUGCAUCCCACCACAUGAUGAUGCCUGAAGAGCCUUGGUUUUUUG [G42A A83U]	-2.65
GACCAAUCUGCCCUCAGAGCUCGAGAACAUCUUCGGAUGCAAAGGAGGCAGGCUUCGGUGGCGCGUUAGCGCCAACGUUCUCAACCUCCAAUGCAUCCCACCACAUGAUGAUGCCUGAAGAGCCUUGGUUUUUUG [G42A A66U C79U]	-3.79
GACCAAUCUGCCCUCAGAGCUCGAGAACAUCUUCGGAUGCAAAGGAGGCAGGCUUCGGUGGCGCGAUAGAGCCAACGUCCUCAUCCUCCAACGCAACCCACGACAUGAUGAUGCCUGAAGAGCGUUGGUUUUUUG [G42A C70A A84U U92C U96A C102G C124G]	-6.77
GACCAAUCUGCCCUCAGAGCUCGAGAACAUCUUCGGAUGCAAAGGAGGCAGGUUUCGGUGGCUCGAUAGCGCCAACGUCCUCAACCUCCAAUGCAUCCCACCACAUGAUGAUGCCUGAAGAGCCUUGGUUUUUUG [G42A C53U G63U]	-3.99
GACCAAUCUGCCCUCAGAGCUCGAGAACAUCUUCGGAUGCAAAGGAGGCAGGCUUCGGUGGCGCGAUAGCGCCAACGUCCUCAACCUCCAAUGCCUCCCACCACAUGAUGAUGCCUGAAGAGCCUUGGUUUUUUG [G42A A95C]	-1.94
GACCAAUCUGCCCUCAGAGCUCGAGAACAUCUUCGGAUGCAAAGGAGGCAGGCUUCGGUGGCGCGAUAGCGCCAACGUCCUCAACCUCCAAUGCAUCCCACCACAUGAUGAUGCCUGAAGAGCCUUGGUUUUUUG [G42A]	-1.69
GACCAAUCUGCCCUCAGAGCUCGAGAACAUCUUCGGAUGCAAAGGAGGCAGGCUUCGGUGGUGCGAUAGCGCCAACGUCCUCAACCUCCAAUGCAUCCCACCACAUGAUGAUGCCUGAAGAGCCUUGGUUUUUUG [G42A C62U]	-2.15
GACCAAUCUGCCCUCAGAGCUCGAGAACAUCUUCGGAUGCAAAGGAGGCAGGCUUCGGUGGCGCGAUAGCGCUAACGUCCUCAACCUCCAAUGCAUCCCACCACAUGAUGAUGCCUGAAGAGCCUUGGUUUUUUG [G42A C73U]	-1.61
GACCAAUCUGCCCUCAGAGCUCGAGAACAUCUUCGGAUGCUGAGGAGGCAGGCUUCGGUGGCGCUAUAGCGCCAACGUCCUCAACCUCCAAUGCAUCCCACCACAUGAUGAUGCCUGAAGAGCCUUGGUUUUUUG [A41U G65U]	-6
GACCAAUCUGCCCUCAGAGCUCGAGAACAUCUUCGGAUGCAAAGGAGGCAGGCUUCGGUGGCGUGAUAGCGCCAACGUCCUCAACCUCCAAUGCAUCCCACCACAUGAAGAUGCCUGAAGAGCCUUGGUUUUUUG [G42A C64U U109A]	-6.32
GACCAAUCUGCCCUCAGAGCUCGAGAACAUCUUCGGAUGCUGAGGAGGCAGGCUUCGGUGGCGCGAUACCGCCAACGUCCUCAACCUCCAAUGCAUCCCACCACAUGAUGAUGCCUGAAGAGCCUUGGUUUUUUG [A41U G69C]	-4.05
GACCAAUCUGCCCUCAGAGCUCGAGAACAUCUUCGGAUGCUGAGGAGGCAGGCUUCGGUGGCGCGAUAGCCCCAACGUCCUCAACCUCCAAUGCAUCCCACCACAUGAUGAUGCCUUAAGAGCCUUGGUUUUUUG [A41U G71C G117U]	-5.03
GACCAAUCUGCCCUCAGAGCUCGAGAACAUCUUCGGAUGCAAAGGAGGCAGGCUUCGGUGGCGCGAUAGCGGCAACGUCCUCAACCUGCAAUGCAUCCCACCACAUGAUGAUGCCUGAAGAGCCUUGGUUUUUUG [G42A C72G C88G]	-3.92
GACCAAUCUGCCCUCAGAGCUCGAGAACAUCUUCGGAUGCAAAGUAGGCAGGCUUCGGUGGCGCGAUGGCGCCAACGUCCUUAACCUCUUAUGCAUCCCACCACAUGAUGAUGCCUGGAGAGCCUUGGUUUUUUG [G42A G45U A68G C82U C89U A90U A118G]	-4.62
GACCAAUCUGCCCUCAGAGCUCGAGAACAUCUUCGGAUGCUGAGGAGGCAGGCUUCGGUGGCGCGAUAGCCCCAACGUCCUCAACCUCCAAUGCAUCCCACCACAUGAUGAUGCCUGAAGAGCCUUGGUUUUUUG [A41U G71C]	-3.84
GACCAAUCUGCCCUCAGAGCUCGAGAACAUCUUCGGAUGCUGAGGAGGCAGGCUUCGGUGGCGCGAUAGCGCCAACGUCCUCAACCUCCAAUGCAGCCCACCACAUGAUGAUGCCUGAAGAGCCUUGGUUUUUUG [A41U U96G]	-2.51
GACCAAUCUGCCCUCAGAGCUCGAGAACAUCUUCGGAUGCAAUGGAGGCAGACUUCGGUGGCGCGAUAGCGCUAACGUCCUCAACCUCCAAUGCAUCCCACCACAUGAUGAUGCCUGAAGAGCCUUGGUUUUCUG [G42A A43U G52A C73U U133C]	-1.65
GACCAAUCUGCCCUCAGAGCUCGAGAACAUCUUCGGAUGCAAAGGAGGCAGGCUUCGGUGGCGCGAUAGCGACAACGUCCUCAACCUCCAAUGCAUCCCACCACAUGAUGAUGUCUGAAGAGCCUUGGUUUUUUG [G42A C72A C114U]	-2.37

Variant	polymerase ribozyme fitness (log ratio)
GACCAAUCUGCCCUCAGAGCUCGAGAACAUCUUCGGAUGCAAAGCAGGCAGGCUUCGGUGGCGCGAUAUCGCCAACGUCCUCAACCUCCAAUGCAUCCCACCACAUGAUGAUGCCUGAAGAGUCUUGGUUUUUUG [G42A G45C G69U C123U]	-0.482
GACCAAUCUGCCCUCAGAGCUCGAGAACAUCUUCGGAUGCAAAGGAGGCAGGCUUCGGUGGCGUGAUAGCGCCAACGUCCUCAACCUCCAAUGCAUCCCACCACAUGAUGAUGCAUGAUGAGCCUUGGUUUUUUG [G42A C64U C115A A119U]	-3.76
GACCAAUCUGCCCUCAGAGCUCGAGAACAUCUUCGGAUGCAAAUGAGGCAGGCUUCGGUGGCGCGAUAGUGCCAAUGUCCUCAACCUCCAAUGCAUCCCACCACAUGAUGAUGCCUGAAGAGCCUUGGUUUUUUG [G42A G44U C70U C76U]	-4.28
GACCAAUCUGCCCUCAGAGCUCGAGAACAUCUUCGGAUGCAAAGGAGGCAGGCUUCGGUGGCGCGAUAGCGCCAACGUCCUCAACCUCCAAUGCAUCCCACCACAUGGUGAUGCCUGAAGGGCCUUGGUUUUUUG [G42A A108G A121G]	-2.74
GACCAAUCUGCCCUCAGAGCUCGAGAACAUCUUCGGAUGCAAAGGAGGCAGGCUUCGGUGGCGCGAUAGCGCCAACGUCCUCAAUCUCCAAUGCAUCCCACCACAUGAUGAUGCCUGAAGAGCCUUGGUUUUUUG [G42A C85U]	-2.41
GACCAAUCUGCCCUCAGAGCUCGAGAACAUCUUCGGAUGCUGAGGAGGCAGGCUUCGGUGGCGCGAUAGCGCCAACAUCCUCAACCUCCAAUGCAUCCCACCACAUGAUGAUGCCCGAAGAGCCUUGGCUUUUUG [A41U G77A U116C U129C]	-3.98
GACCAAUCUGCCCUCAGAGCUCGAGAACAUCUUCGGAUGCUGAGGAGGCAGGCUUCGGUGGCGCGAUAGCGCCAACGCCCUCAACCUCCAAUGCAUCCCACCACAUGAUGAUGCCUGAAGGGCCUUGGUUGUUUG [A41U U78C A121G U131G]	-0.28
GACCAAUCUGCCCUCAGAGCUCGAGAACAUCUUCGGAUGCAAAGGAGGCAGGCUUCGGUGGCGCGAUAGCGCCAACGUCCUCAACCUCCAAUGCAUCCCACCACAUGAUGGUCCCUGAAGCGCCUUGGUUUUUUG [G42A A111G G113C A121C]	-0.948
GACCAAUCUGCCCUCAGAGCUCGAGAACAUCUUCGGAUGCAACGGAGGCAGGCUUCGGUGGCGCGAUAGCGCCAACGUCCUCAACCUCCAAUGCAUCCCACCACAUGAUGAUGCCUGAAGAGCCUUGGUUUUUUG [G42A A43C]	-2.41
GACCAAUCUGCCCUCAGAGCUCGAGAACAUCUUCGGAUGCAAAGGAGGCAGGCUUCGGUGGCGCGAUAGCGCCAACGUCCUUAACCUCCAAUGCAUCCCACCACAUGAUGAUGCCUGAAGAGCCUUGGUUUUUUG [G42A C82U]	-1.95
GACCAAUCUGCCCUCAGAGCUCGAGAACAUCUUCGGAUGCAAAGGAGGCAGGCUUCGGUGGCGCGAUAGAGCCAACGUCCUCAACCUGCAAUGCAUCCCACCACAUGAUGAUGCCUGAAGAGCCUUGGUUUUUUG [G42A C70A C88G]	-6.71
GACCAAUCUGCCCUCAGAGCUCGAGAACAUCUUCGGAUGCAAAGGUGACAGGCUUCGGUGGCACGAUAGCGCCAACGUCCUCAACCUCCAAUGCAUCCCACCACAUGAUGAUGCCUGUAGAGCCUUGGUUUUUUG [G42A A46U G48A G63A A118U]	-3.82
GACCAAUCUGCCCUCAGAGCUCGAGAACAUCUUCGGAUGCAAAGGAGCCAGGCUUGGGUGGCGCGAUAGCGCCAACGUCCUCAACUUCCAAUGCAUCCCAGCACAUGAUGAUGCCUGAAGAGCCUUGGUUUUUUG [G42A G48C C56G C86U C101G]	-4.3
GACCAAUCUGCCCUCAGAGCUCGAGAACAUCUUCGGAUGCAAAGGAGGCAGGCUUCGGUGGCGCGAUAGCGCCAACGUGCUCAACCUCCAAUGCAUCCCACCACAUGAUGAUACCUGAAGAGCCUUGGUUUUUUG [G42A C79G G113A]	-4.19
GACCAAUCUGCCCUCAGAGCUCGAGAACAUCUUCGGAUGCUGAGGAGGCAGGCUGCGGUGGCGCGAUAGCGCCAACGUCCUCAACCUCCAUUGCAUCCCAGCACAUGAUGAUGCCUGAAGAGCCUUGGUUUUUUG [A41U U55G A91U C101G]	-4.09
GACCAAUCUGCCCUCAGAGCUCGAGAACAUCUUCGGAUGCAAAGGAGGCUGGCUUCGGUGGCGCGAUAGCGCCAACGUCCUCAACCUCCAAUGCAUCCCACCACAUGAUGAUGCCUGAAGAGCCUUGGUUUUUUG [G42A A50U]	-4.57
GACCAAUCUGCCCUCAGAGCUCGAGAACAUCUUCGGAUGCAAAGGAGGCAGGCUUCGGUGGCGCGAUAGCGCCAACGUCCUCAACCUCCACUGCAUCCCACCACAUGAUGAUGCCUGAAGAGUCUUGGUUAUUUG [G42A A91C C123U U131A]	-1.71
GACCAAUCUGCCCUCAGAGCUCGAGAACAUCUUCGGAUGCAAAGGAGGCUGGCUUCGGUGGCGCGAUAGCGCCAACGUCCUCAACCUCCAAUGCAUCCCAUCACAUGAUGAUGCCUGAAGAGCCUUGGUUUUUUG [G42A A50U C101U]	-4.32
GACCAAUCUGCCCUCAGAGCUCGAGAACAUCUUCGGAUGCUGAGGAGGCAGGCUUCGGUGGCGCGAUAGCGCCAACGUCCUCAACCUCCAAUGCAUCCCACCACAUGAUUAUGCCUGAAGAGCCAUGGUUUUUUG [A41U G110U U125A]	-4.14
GACCAAUCUGCCCUCAGAGCUCGAGAACAUCUUCGGAUGCAAAGGAGGCUGGCUUCGGUGGCGCGAUAGCGCAAACGUCCUCAACCUCCAAUGCAUCCCACCACAUGAUGAUGCCUGAAGAGUCUUGGUUUUUUG [G42A A50U C73A C123U]	-2.52
GACCAAUCUGCCCUCAGAGCUCGAGAACAUCUUCGGAUGCUGAGGAGGCAGGCUUCGGUGGCGCGAUAGCGCCAACGUCCUCAACCUCCAAUGCAUCCCACCACAUGAUGAUACCUGAAGAGCCUUGGUUUUUUG [A41U G113A]	-1.81

— the RNAGym collection of RNA variant scans (doi:10.1073/pnas.2313332121)
